Results reported in patent US20240052061A1 (published 2024).
One block for each binder: values may come before it.

What was measured:
[1] = biological target: T1, human ecto-nucleoside triphosphate diphosphohydrolase-3 (NTPDase3) (human, UniProt O75355 1-529); assay: flow cytometry; HEK293T-hENTPD3 cells
T1 chain: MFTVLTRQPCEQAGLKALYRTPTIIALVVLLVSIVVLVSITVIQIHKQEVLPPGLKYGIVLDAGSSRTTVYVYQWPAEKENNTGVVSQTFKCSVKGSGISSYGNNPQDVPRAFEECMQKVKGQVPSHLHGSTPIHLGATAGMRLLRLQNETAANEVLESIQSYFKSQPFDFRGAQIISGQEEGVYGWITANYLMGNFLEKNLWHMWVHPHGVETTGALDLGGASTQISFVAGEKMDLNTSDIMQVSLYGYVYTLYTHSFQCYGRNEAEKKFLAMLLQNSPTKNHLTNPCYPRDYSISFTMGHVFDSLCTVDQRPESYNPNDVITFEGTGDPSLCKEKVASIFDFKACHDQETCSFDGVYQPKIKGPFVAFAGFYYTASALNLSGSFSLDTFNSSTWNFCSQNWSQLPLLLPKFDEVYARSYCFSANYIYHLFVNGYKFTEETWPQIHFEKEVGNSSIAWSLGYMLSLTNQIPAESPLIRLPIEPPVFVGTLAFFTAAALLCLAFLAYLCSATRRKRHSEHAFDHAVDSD

[2] = biological target: T1, human ecto-nucleoside triphosphate …; assay: flow cytometry; CHO-hENTPD3 cells, 2h at 37°C
[3] = biological target: T1, human ecto-nucleoside triphosphate …; assay: flow cytometry; CHO-hENTPD3 cells, 20 min at 4°C
[4] = biological target: T1, human ecto-nucleoside triphosphate …; assay: flow cytometry; COS7-hENTPD3 cells
[5] = biological target: T1, human ecto-nucleoside triphosphate …; assay: flow cytometry; HEK293T-hENTPD3 cells
[6] = biological target: T1, human ecto-nucleoside triphosphate …; assay: flow cytometry; COS7-hENTPD3 cells
[7] = biological target: T1, human ecto-nucleoside triphosphate …; assay: flow cytometry; CHO-hENTPD3 cells
[8] = biological target: T1, human ecto-nucleoside triphosphate …; assay: flow cytometry; CHO-hENTPD3 cells
r3E9 = assay: flow cytometry; RT4 cells; rabbit mAb
[9] = biological target: T1, human ecto-nucleoside triphosphate …; assay: flow cytometry; COS7-hENTPD3 cells
[10] = biological target: T1, human ecto-nucleoside triphosphate …; assay: flow cytometry; HEK293T-hENTPD3 cells
[11] = biological target: T1, human ecto-nucleoside triphosphate …; assay: flow cytometry; CHO-hENTPD3 cells
[12] = biological target: T1, human ecto-nucleoside triphosphate …; assay: flow cytometry; RT4 cells

Kd [1]: 2.22 nM | Kd [2]: 2.54 nM | Kd [3]: 22.3 nM | Kd [4]: 0.96 nM | Kd [5]: 6.56 nM | Kd [6]: 1.93 nM | Kd [7]: 26.6 nM | Kd [8]: 1.11 nM
B1: 38D5 Hu/Ra (antibody, V domains shown)
VH: QELVESGGGLVQPGGSLKLSCKASGIDFNNYGISWVRQAPGKGLEWIAYKYPGFGIRNYANSVKGRFTISSDNAQNTVFLQMTSLAASDTATYFCARGARYRHDDYGALNLWGPGTLVTVSS
VL: DIVMTQTPPSVSAAVGGTVTINCQASQSVTNLLAWYQQKPGQPPKLLIYGASNLESGVPSRFRGSGSGTEFTLTISGMKAEDAATYYCQSGYYSANTFGAGTKVGIKR

Kd (r3E9): 0.22 nM
B2: hENTPD3 (RT4 cells) (enzyme)
chain: T1 chain

Kd [1]: 0.33 nM | Kd [2]: 1.02 nM | Kd [3]: 1.82 nM | Kd [9]: 0.31 nM | Kd [6]: 0.54 nM | Kd [10]: 2.76 nM | Kd [7]: 1.59 nM | Kd [11]: 0.43 nM | Kd [12]: 0.06 nM
B3: 8E1 Hu/Ra (antibody, V domains shown)
VH: QSVEESGGRLVTPGTPLTLTCTVSGFSLSSYAMGWVRQAPGKGLEFIGIISYSGNTYYASWAKGRFPISKTSSTTVDLKMTSPTTEDTANYFCARARYGGYSTNSYYLNIWGPGTLVTVSS
VL: DVVMTQTPASVEAAVGGTVTINCQASENIYRVLAWYQQKPGQRPKLLIYGASNLESGVPSRFKGSGSGTDYTLTISDLECDDAATYYCQGVVYNSDDSAFGGGTEVVVKG
